According to patent US20080161234A1, “Composition Comprising Lactic Acid and Lactoferrin” (priority 2004, published 2008):

Experiments:
[1] = system: C. albicans (ATCC 64549); assay: Microbicidal microplate assay (viable counts), C. albicans; format: cell-based
Protocol: The bacterial strains S. aureus 1800 (CCUG 1800), E. coli 06, and the yeast C. albicans (ATCC 64549) have been used in the microplate assay. All microorganisms were cultured in brain heart infusion medium (BHI) on a shaker over night at 37° C. A volume of the culture was transferred to a new tube with BHI and incubated for two more h on the shaker. The bacteria were harvested in the log phase, washed once and thereafter suspended in the broth used for the microplate assay. The suspension was adjusted spectrophotometrically and diluted to a concentration of approximately 4×10^6 cells per ml at 650 nm. Washed cells were suspended in 0.2% BP (pH 7.0) or BHI medium diluted 1/10 (0.34%, pH 6.7-6.9) (Difco, USA). The concentration of bacterial or fungal cells was spectrophotometrically adjusted. LF or peptide, serially diluted in BHIdil or BP by twofold steps (unless otherwise stated), were added in triplicate to the wells of a microtiterplate (200 ul per well). The bacterial or yeast cell solutions were added in 10 ul volumes to give a final concentration of approximately 2×10^5 cells per ml. The concentration of the stock solution was always checked by viable counts. The microplate was incubated at 37° C. in a humid chamber for 2 h unless otherwise stated. Five ul were taken from each well and added as a drop onto a blood agar plate and incubated over night at 37° C. In some experiments more thorough viable counts were performed and the killing was expressed as remaining colony forming units in relation to the inoculum. The lower limit for detection of microorganisms was 200 CFU/ml. The antimicrobial activity of human LF was analysed by the microbicidal assay described above. Different microbes such as C. albicans, E. coli and S. aureus were analysed with respect to their survival in lactate (not containing the inert gel base, which makes the gel unsuitable for the microbicidal assay) containing LF. […] LF was incubated together with various concentrations of lactate diluted in 0.2% bactopeptone and C. albicans for 2 h. Thereafter each solution was analysed for viable counts.

[2] = system: G. vaginalis; assay: Minimal bactericidal concentration (MBC99) of LF on G. vaginalis strains; format: cell-based; settings: concentration at which 99% killing was obtained, fivefold serial steps
Protocol: G. vaginalis and P. bivia were cultured on chocolate-GL-plates for 48 h in anaerobic milieu. The bacteria were harvested and suspended in BHI for further incubation (4 hours at 37° C.). The bacteria were washed twice in Bactopeptone (BP, 0.2%). The concentration was adjusted spectrophotometrically and diluted to 1×10^7 bacteria per ml.
The procedure for the microbicidal assay with regard to G. vaginalis and P. bivia was as described above except that the microplate was incubated under anaerobic conditions (2 h). Thereafter droplets of the solutions were analyzed for viable bacteria on blood agar plates after 48 h of anaerobic incubation at 37° C.
Instead of 0.2% BP 0.34% BHI was used. […] The plate was incubated for 20 hours.

B1: LF: LF from human milk purchased from Sigma; single chain iron-binding glycoprotein (protein, UniProt P02788 20-710, looked up)
Lactotransferrin: GRRRSVQWCAVSQPEATKCFQWQRNMRKVRGPPVSCIKRDSPIQCIQAIAENRADAVTLDGGFIYEAGLAPYKLRPVAAEVYGTERQPRTHYYAVAVVKKGGSFQLNELQGLKSCHTGLRRTAGWNVPIGTLRPFLNWTGPPEPIEAAVARFFSASCVPGADKGQFPNLCRLCAGTGENKCAFSSQEPYFSYSGAFKCLRDGAGDVAFIRESTVFEDLSDEAERDEYELLCPDNTRKPVDKFKDCHLARVPSHAVVARSVNGKEDAIWNLLRQAQEKFGKDKSPKFQLFGSPSGQKDLLFKDSAIGFSRVPPRIDSGLYLGSGYFTAIQNLRKSEEEVAARRARVVWCAVGEQELRKCNQWSGLSEGSVTCSSASTTEDCIALVLKGEADAMSLDGGYVYTAGKCGLVPVLAENYKSQQSSDPDPNCVDRPVEGYLAVAVVRRSDTSLTWNSVKGKKSCHTAVDRTAGWNIPMGLLFNQTGSCKFDEYFSQSCAPGSDPRSNLCALCIGDEQGENKCVPNSNERYYGYTGAFRCLAENAGDVAFVKDVTVLQNTDGNNNEAWAKDLKLADFALLCLDGKRKPVTEARSCHLAMAPNHAVVSRMDKVERLKQVLLHQQAKFGRNGSDCPDKFCLFQSETKNLLFNDNTECLARLHGKTTYEKYLGPQYVAGITNLKKCSTSPLLEACEFLRK
- inoculate killed ([1]; LF 2 mg/ml in lactate 1%, 2 h): 92%
- inoculate killed ([1]; LF 5 mg/ml in lactate 1%, 2 h): 98.2%
- reduction of yeast cells ([1]; LF in lactate concentrations 0.2%, 0.04% and 0%, 0.2% bactopeptone, 2 h): 99.9%
- effect of LF on antimicrobial effect of lactate against C. albicans ([1]; lactate diluted fivefold or more (≦1%), all LF concentrations except 0.5 mg at 1% lactate): enhanced the antimicrobial effect of lactate
- microbicidal activity against C. albicans, LF compared with rHLF ([1]; without lactate, 0.25 and 0.125 mg/ml, 2 h of incubation): somewhat more active
- MBC99 ([2]; G. vaginalis strain code 12): 500 µg/mL
- MBC99 ([2]; G. vaginalis strain code 17): >2500 µg/mL
- MBC99 ([2]; G. vaginalis strain code 23): 1000 µg/mL
- MBC99 ([2]; G. vaginalis strain code 51): 100 µg/mL
- MBC99 ([2]; G. vaginalis strain code 90): 4 µg/mL
- MBC99 ([2]; G. vaginalis strain code 96): 100 to 500 µg/mL
